From publication PMC5503512, “The complex of TRIP-Br1 and XIAP ubiquitinates and degrades multiple adenylyl cyclase isoforms” (eLife, 2017)

B1: purified TRIP-Br1 (His-tagged at both N and C termini) (natural protein, human, UniProt Q9UHV2 1-236, looked up)
chain: MLSKGLKRKREEEEEKEPLAVDSWWLDPGHTAVAQAPPAVASSSLFDLSVLKLHHSLQQSEPDLRHLVLVVNTLRRIQASMAPAAALPPVPSPPAAPSVADNLLASSDAALSASMASLLEDLSHIEGLSQAPQPLADEGPPGRSIGGAAPSLGALDLLGPATGCLLDDGLEGLFEDIDTSMYDNELWAPASEGLKPGPEDGPGKEEAPELDEAELDYLMDVLVGTQALERPPGPGR
notes: TRIP-Br1 (SERTAD1), human, cDNA amplified from Calu-3 cells; The methods call it His-TRIP-Br1; the legends say His-tagged at both termini; also called His-TRIP-Br1; source: E. coli BL21 (codon plus), purified (Ni-NTA); not shown: His, N-terminal, kept; His, C-terminal, kept
B2: GST-TRIP-Br1 fusion protein (full-length TRIP-Br1 fused with GST) (natural protein, human, UniProt Q9UHV2 1-236, looked up)
chain: B1 chain
notes: also called Sertad1; SEI-1; source: E. coli BL21 codon plus, purified (glutathione-Sepharose)

Experiments:
[1] = molecular target: T1, FLAG-His-tagged AC1-M (AC1 amino acids 236-612) (bovine, UniProt P19754 236-612); experiment: pull-down; pairwise pull-down, two purified proteins from E. coli, 5 μg of each, FLAG-His-tagged AC1 fragment held on anti-FLAG M2 affinity gel, Co-IP buffer, 500 μL, 2 hr at 4°C; washed with PBS containing 1% Triton X-100; western blot; conditions: both partners purified
T1 construct: Ends of the tags as in the printed name His-AC1-M-FLAG; also called His-AC1-M-FLAG; M, cytosolic region between the 2 transmembrane domains; not shown: His, N-terminal, kept; FLAG, C-terminal, kept
T1 sequence (P19754 236-612): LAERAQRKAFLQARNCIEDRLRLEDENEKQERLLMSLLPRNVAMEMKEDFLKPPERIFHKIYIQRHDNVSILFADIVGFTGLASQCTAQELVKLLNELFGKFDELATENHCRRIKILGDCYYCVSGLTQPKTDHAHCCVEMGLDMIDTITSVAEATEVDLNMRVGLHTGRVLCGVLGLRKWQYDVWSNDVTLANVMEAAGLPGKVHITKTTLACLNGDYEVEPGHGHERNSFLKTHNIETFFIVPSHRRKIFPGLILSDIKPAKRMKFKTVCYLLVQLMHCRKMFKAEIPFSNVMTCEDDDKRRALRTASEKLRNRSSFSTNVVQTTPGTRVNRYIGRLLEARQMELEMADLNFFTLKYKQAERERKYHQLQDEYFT

[2] = molecular target: T2, His-XIAP purified from E. coli (human, UniProt P98170 1-497); experiment: pull-down; GST, GST-TRIP-Br1 or GST-TRIP-Br1 truncation mutants used to capture His-XIAP purified from E. coli; conditions: both partners purified
T2 construct: also called purified XIAP; source: E. coli BL21, purified (Ni-NTA, with 200 μM zinc sulfate)
T2 sequence (P98170 whole entry, the tested form may be a part): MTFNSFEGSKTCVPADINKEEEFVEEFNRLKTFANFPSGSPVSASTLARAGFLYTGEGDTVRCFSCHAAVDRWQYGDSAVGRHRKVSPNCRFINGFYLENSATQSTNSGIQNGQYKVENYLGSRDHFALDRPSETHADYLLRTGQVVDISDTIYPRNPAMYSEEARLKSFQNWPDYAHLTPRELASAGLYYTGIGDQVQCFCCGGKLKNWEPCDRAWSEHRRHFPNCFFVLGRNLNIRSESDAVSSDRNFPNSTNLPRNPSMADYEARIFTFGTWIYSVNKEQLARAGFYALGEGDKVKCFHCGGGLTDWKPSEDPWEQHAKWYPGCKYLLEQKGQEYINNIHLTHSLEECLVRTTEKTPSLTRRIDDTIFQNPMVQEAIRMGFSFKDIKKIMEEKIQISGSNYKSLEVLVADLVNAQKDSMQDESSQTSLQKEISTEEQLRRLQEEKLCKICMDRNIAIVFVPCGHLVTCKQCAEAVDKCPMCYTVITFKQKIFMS

binding result [1] | binding result [2] | Binder
binds | – | B1
– | binds | B2
